Here are results for three substances from patent publication US5418135.

The assay has as its target PDGF receptor (cell membrane-bound receptor for native PDGF).
Consider “A4, Endo Lys-C fragment aa 80-110 of alkylated PDGF A monomer (peptide)”, for which the HALF-MAX INHIBITION (3H-thymidine incorporation induced by PDGF dimer) was 100 nM.

In the case of “A6, Endo Lys-C fragment aa 12-41 of alkylated PDGF A monomer (peptide)”, the HALF-MAX INHIBITION (3H-thymidine incorporation induced by PDGF dimer) was over 200 nM.

The substance “PDGF A chain monomer, intact, Cys residues pyridylethylated (ligand)” gave an HALF-MAX INHIBITION (3H-thymidine incorporation induced by PDGF dimer) of 100 nM.
